Reference: publication PMC11348317 (Proceedings of the National Academy of Sciences of the …, 2024)

Target: the molecule itself
Experiment: FRET or BRET

B1: Escherichia coli transthyretin-related protein (EcTRP), single Cys variant Asn94Cys with N-terminal His5-tag, fluorophore-labelled (enzyme, UniProt P76341 24-137, looked up)
chain: AQQNILSVHILNQQTGKPAADVTVTLEKKADNGWLQLNTAKTDKDGRIKALWPEQTATTGDYRVVFKTGDYFKKQNLESFFPEIPVEFHINKVCEHYHVPLLLSQYGYSTYRGS
modifications: Cys94 labelled with DyLight 550 maleimide (FRET donor) or Alexa 647 maleimide (FRET acceptor)
In the case of B1, the “half-life of subunit exchange” value is reported as greater than 30 h.
